From the supplement of paper PMC10065799, “High-throughput profiling of sequence recognition by tyrosine kinases and SH2 domains using bacterial peptide display” (eLife, 2023)

What was measured:
AncSZ = test: phosphorylation enrichment, bacterial display (enrichment ratio); higher = better substrate or ligand; peptides without Tyr show the background
EPHB1 = EPHB1 (UniProt P54762); test: as above
EPHB2 = EPHB2 (UniProt P29323); test: as above
FGFR1 = FGFR1 (UniProt P11362); test: as above
FGFR3 = FGFR3 (UniProt P22607); test: as above
Fer (mouse) = test: as above
Fes = Fes (UniProt P07332); test: as above
Fyn = Fyn (UniProt P06241); test: as above
Hck = Hck (UniProt P08631); test: as above
Jak2 = Jak2 (UniProt O60674); test: as above
MERTK = MERTK (UniProt Q12866); test: as above
c-Abl (mouse) = test: as above
c-Src = test: as above
Grb2 SH2 = Grb2 SH2 (UniProt P62993); test: SH2 binding enrichment of the phosphorylated peptide, bacterial display (enrichment ratio); higher = better substrate or ligand; peptides without Tyr show the background
SHP2-C SH2 = test: as above
c-Src SH2 = test: as above
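Wherever SH2 binding enrichment of the phosphorylated peptide, bacterial display is given: peptide library displayed on the E. coli surface as eCPX fusions, selected cells deep-sequenced, score is each peptide's frequency after selection divided by its frequency in the input.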
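Wherever phosphorylation enrichment, bacterial display is given: 11-residue human phosphosite peptides and single-mutation variants displayed on the E. coli surface, counted by deep sequencing, each peptide's frequency after selection divided by its frequency in the unselected input library; frequency after pTyr selection over input frequency; kinase dosed for 20-30% of maximal phosphorylation in three min.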

Sequence of Fyn (P06241 whole entry, looked up): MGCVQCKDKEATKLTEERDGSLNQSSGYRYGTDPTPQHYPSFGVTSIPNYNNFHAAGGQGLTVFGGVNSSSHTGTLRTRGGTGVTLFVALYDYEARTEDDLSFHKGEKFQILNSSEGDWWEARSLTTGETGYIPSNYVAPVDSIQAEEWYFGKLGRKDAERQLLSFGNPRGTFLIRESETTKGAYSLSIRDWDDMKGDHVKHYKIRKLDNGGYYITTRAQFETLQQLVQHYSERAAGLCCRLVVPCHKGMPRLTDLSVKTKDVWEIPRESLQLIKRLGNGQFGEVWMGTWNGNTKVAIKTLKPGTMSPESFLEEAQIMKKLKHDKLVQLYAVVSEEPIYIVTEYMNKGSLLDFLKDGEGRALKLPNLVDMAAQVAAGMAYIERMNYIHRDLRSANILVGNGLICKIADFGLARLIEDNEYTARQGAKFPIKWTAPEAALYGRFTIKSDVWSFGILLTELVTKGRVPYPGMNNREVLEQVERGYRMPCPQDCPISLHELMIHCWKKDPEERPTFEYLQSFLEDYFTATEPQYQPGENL
Sequence of Hck (P08631 whole entry, looked up): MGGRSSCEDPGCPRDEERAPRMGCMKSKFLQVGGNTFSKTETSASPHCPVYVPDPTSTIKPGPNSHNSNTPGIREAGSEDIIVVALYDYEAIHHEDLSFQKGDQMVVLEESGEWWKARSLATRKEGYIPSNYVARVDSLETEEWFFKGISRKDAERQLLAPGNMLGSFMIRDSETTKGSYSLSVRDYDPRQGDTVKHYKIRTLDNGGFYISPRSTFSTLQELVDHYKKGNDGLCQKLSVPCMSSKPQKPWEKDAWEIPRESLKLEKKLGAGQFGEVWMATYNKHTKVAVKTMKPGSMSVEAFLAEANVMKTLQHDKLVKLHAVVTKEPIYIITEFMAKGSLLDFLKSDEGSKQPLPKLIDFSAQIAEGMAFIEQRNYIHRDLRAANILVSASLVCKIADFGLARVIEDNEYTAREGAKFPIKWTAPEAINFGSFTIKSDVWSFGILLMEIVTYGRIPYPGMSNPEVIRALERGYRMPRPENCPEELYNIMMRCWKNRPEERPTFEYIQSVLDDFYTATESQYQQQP
Sequence of EPHB2 (P29323 whole entry, looked up): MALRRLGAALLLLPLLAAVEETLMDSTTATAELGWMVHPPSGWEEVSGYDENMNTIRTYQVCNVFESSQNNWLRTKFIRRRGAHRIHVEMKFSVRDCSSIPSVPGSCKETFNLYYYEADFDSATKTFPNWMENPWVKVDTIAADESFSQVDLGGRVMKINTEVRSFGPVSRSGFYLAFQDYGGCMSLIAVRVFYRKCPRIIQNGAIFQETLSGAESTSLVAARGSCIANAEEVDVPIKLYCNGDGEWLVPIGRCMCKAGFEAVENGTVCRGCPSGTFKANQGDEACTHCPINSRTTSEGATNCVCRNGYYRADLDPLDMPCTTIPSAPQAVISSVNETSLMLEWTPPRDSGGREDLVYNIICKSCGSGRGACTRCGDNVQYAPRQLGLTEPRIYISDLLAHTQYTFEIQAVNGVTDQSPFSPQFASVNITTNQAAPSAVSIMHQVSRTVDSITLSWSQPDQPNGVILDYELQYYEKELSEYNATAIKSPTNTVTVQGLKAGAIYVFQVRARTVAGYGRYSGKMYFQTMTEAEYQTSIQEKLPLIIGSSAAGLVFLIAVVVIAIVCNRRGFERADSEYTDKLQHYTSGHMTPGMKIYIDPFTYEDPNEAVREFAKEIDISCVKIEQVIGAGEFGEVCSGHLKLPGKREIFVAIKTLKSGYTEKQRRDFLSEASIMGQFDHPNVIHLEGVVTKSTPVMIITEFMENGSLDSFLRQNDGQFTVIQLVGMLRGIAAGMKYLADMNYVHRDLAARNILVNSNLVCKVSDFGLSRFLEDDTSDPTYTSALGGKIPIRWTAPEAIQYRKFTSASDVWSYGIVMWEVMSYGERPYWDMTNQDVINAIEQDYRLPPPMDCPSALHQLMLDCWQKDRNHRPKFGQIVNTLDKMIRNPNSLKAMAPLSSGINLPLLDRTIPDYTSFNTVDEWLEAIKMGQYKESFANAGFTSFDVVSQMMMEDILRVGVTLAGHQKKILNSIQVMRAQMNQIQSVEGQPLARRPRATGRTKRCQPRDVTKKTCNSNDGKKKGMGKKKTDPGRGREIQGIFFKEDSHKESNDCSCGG
Sequence of EPHB1 (P54762 whole entry, looked up): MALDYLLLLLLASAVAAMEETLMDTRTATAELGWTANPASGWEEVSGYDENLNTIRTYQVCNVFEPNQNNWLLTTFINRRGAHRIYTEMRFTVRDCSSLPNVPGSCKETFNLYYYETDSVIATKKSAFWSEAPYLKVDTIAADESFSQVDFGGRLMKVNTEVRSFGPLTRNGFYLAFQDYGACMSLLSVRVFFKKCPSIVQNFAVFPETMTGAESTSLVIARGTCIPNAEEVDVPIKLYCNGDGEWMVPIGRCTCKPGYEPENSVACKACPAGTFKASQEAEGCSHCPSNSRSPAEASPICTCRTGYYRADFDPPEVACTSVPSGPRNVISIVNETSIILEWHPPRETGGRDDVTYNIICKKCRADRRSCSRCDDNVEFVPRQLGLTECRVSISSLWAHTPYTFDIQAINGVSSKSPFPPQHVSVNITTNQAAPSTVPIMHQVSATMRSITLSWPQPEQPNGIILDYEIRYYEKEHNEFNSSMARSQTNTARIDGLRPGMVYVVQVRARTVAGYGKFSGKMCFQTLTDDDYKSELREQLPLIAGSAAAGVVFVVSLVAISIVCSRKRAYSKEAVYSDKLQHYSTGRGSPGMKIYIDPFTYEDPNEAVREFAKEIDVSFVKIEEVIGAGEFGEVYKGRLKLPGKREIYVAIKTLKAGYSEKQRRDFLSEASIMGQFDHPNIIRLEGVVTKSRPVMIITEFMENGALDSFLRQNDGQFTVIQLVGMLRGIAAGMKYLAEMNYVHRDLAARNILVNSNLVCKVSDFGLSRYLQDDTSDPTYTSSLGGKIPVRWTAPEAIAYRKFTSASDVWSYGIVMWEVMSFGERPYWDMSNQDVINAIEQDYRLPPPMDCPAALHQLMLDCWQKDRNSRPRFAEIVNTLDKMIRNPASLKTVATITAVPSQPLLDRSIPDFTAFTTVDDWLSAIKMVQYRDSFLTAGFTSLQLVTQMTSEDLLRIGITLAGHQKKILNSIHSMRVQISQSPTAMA
Sequence of Jak2 (O60674 whole entry, looked up): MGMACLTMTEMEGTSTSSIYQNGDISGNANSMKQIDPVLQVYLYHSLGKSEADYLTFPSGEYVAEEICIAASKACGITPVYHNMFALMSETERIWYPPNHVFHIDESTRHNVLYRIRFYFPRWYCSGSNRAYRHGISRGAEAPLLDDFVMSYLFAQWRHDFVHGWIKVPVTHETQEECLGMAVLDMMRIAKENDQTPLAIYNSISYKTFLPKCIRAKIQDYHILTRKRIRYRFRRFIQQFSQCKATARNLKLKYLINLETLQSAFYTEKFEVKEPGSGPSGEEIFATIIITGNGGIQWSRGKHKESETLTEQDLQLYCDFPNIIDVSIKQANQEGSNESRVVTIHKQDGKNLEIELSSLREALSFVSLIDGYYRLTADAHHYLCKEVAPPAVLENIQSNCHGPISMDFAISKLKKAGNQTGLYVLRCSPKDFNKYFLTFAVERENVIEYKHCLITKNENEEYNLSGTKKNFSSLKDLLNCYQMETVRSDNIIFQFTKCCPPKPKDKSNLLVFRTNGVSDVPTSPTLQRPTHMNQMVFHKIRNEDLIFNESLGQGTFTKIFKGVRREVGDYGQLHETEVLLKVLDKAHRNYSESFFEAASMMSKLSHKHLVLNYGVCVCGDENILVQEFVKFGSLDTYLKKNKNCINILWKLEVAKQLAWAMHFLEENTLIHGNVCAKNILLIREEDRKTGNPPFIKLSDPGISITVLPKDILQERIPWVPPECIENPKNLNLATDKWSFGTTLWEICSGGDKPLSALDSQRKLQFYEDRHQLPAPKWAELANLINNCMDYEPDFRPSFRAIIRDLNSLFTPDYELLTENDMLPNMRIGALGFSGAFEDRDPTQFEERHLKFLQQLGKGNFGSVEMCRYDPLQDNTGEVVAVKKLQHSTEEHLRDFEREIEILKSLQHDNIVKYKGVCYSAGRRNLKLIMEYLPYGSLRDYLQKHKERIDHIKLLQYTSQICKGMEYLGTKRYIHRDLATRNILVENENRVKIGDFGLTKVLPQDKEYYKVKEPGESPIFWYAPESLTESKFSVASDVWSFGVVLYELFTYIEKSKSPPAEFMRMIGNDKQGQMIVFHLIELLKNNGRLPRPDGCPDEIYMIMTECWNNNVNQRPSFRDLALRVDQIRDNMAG
Sequence of FGFR3 (P22607 whole entry, looked up): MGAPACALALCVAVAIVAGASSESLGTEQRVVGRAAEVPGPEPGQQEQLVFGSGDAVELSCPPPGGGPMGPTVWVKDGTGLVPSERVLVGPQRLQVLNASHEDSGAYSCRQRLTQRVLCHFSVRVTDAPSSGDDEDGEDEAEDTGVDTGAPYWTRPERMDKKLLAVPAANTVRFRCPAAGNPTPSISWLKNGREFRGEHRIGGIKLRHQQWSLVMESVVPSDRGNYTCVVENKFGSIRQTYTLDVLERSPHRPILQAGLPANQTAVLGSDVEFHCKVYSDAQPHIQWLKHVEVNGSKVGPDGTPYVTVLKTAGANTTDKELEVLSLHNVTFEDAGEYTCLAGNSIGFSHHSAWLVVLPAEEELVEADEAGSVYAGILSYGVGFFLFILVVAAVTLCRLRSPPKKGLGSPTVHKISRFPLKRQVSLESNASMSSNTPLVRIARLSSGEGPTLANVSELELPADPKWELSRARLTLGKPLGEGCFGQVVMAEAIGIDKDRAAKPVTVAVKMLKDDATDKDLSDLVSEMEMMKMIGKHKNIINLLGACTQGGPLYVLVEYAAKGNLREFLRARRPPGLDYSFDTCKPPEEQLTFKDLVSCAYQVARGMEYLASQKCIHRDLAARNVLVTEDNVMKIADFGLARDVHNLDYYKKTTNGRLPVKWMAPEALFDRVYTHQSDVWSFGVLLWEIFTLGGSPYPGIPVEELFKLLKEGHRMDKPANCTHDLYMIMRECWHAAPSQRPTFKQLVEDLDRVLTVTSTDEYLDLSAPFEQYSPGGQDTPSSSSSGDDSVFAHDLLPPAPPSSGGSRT

Sequence | SH2 binding enrichment (Grb2 SH2) | SH2 binding enrichment (SHP2-C SH2) | SH2 binding enrichment (c-Src SH2) | phosphorylation enrichment (AncSZ) | phosphorylation enrichment (EPHB1) | phosphorylation enrichment (EPHB2) | phosphorylation enrichment (FGFR1) | phosphorylation enrichment (FGFR3) | phosphorylation enrichment (Fer (mouse)) | phosphorylation enrichment (Fes) | phosphorylation enrichment (Fyn) | phosphorylation enrichment (Hck) | phosphorylation enrichment (Jak2) | phosphorylation enrichment (MERTK) | phosphorylation enrichment (c-Abl (mouse)) | phosphorylation enrichment (c-Src)
RRIHSYRRHLW [VHL_Y112_G114R] | 0.918 | 0.678 | 0.536 | 0.735 | 0.725 | 0.82 | 0.868 | 0.718 | 0.529 | 0.699 | 0.65 | 0.746 | 0.633 | 0.707 | 0.699 | 0.584
RSACTYLAPHL [PLK3_Y615_S618P] | 0.876 | 0.648 | 0.562 | 2.67 | 1.88 | 1.25 | 0.691 | 0.71 | 0.589 | 1.02 | 1.1 | 1.45 | 1.59 | 1.02 | 6.67 | 2.74
RSAGKYDVFLI [MECP2_Y120_YF] | 1.03 | 0.677 | 0.914 | 0.558 | 0.697 | 0.563 | 0.352 | 0.748 | 0.618 | 0.758 | 0.556 | 0.714 | 0.775 | 0.561 | 0.85 | 0.533
RSLLQYGGSAN [ANK1_Y624] | 0.749 | 0.716 | 0.482 | 0.964 | 0.709 | 0.717 | 0.574 | 0.772 | 0.8 | 0.857 | 0.537 | 0.813 | 0.626 | 0.439 | 1.01 | 0.459
RSPLRYTSILT [OR51B6_Y130] | 1.67 | 3.94 | 2.87 | 0.679 | 0.426 | 0.532 | 0.536 | 0.431 | 0.492 | 0.843 | 0.64 | 0.443 | 0.655 | 0.392 | 0.632 | 0.392
RSRSSYTHGLN [MYCT1_Y116] | 0.779 | 0.917 | 0.593 | 1.42 | 1 | 0.882 | 0.588 | 0.88 | 0.705 | 1.35 | 0.956 | 0.935 | 0.916 | 0.883 | 0.981 | 1.23
RSSKMYFKTRS [LPL_Y329_L330F] | 0.884 | 0.747 | 0.459 | 1.2 | 0.685 | 0.567 | 0.701 | 0.561 | 0.764 | 1.22 | 0.667 | 0.634 | 0.989 | 0.712 | 1.07 | 0.856
SETSRYLSELF [KCNJ3_Y67_D70E] | 0.883 | 0.774 | 0.588 | 1.07 | 0.467 | 0.498 | 0.509 | 0.537 | 0.376 | 0.882 | 0.397 | 0.464 | 0.783 | 0.382 | 0.535 | 0.346
SFPSTYRYERG [INPPL1_Y661_P659S] | 0.987 | 0.728 | 0.633 | 0.484 | 0.453 | 0.397 | 0.39 | 0.449 | 0.418 | 0.813 | 0.439 | 0.392 | 0.767 | 0.455 | 0.52 | 0.463
SFTDPYAQPPL [KMT2D_Y2378_YF] | 0.651 | 0.656 | 0.534 | 0.787 | 0.475 | 0.527 | 0.487 | 0.607 | 0.411 | 0.832 | 0.531 | 0.502 | 0.722 | 0.468 | 0.502 | 0.54
SGSFRYGSSCE [SELE_Y390] | 0.748 | 0.747 | 0.528 | 0.642 | 0.412 | 0.456 | 0.393 | 0.554 | 0.353 | 0.801 | 0.45 | 0.47 | 0.644 | 0.388 | 0.486 | 0.466
SHPSSYTTHPQ [NIPBL_Y195] | 0.728 | 0.723 | 0.477 | 0.412 | 0.362 | 0.384 | 0.459 | 0.404 | 0.467 | 0.82 | 0.441 | 0.46 | 0.492 | 0.463 | 0.417 | 0.478
SIKHKYVTALY [KCNH2_Y611_D609H] | 0.761 | 0.63 | 0.484 | 0.537 | 0.399 | 0.4 | 0.45 | 0.594 | 0.398 | 0.582 | 0.43 | 0.524 | 0.528 | 0.407 | 0.444 | 0.398
SIKNKYVTALF [KCNH2_Y611_D609N_YF] | 0.994 | 1.06 | 0.671 | 0.672 | 0.394 | 0.459 | 0.417 | 0.507 | 0.371 | 0.653 | 0.402 | 0.465 | 0.566 | 0.41 | 0.487 | 0.41
SKNSKYNAGST [PSEN1_Y315_E318G] | 0.581 | 0.557 | 0.349 | 0.535 | 0.307 | 0.654 | 0.358 | 0.439 | 0.436 | 0.776 | 0.59 | 0.442 | 0.608 | 0.536 | 0.677 | 0.737
SLFNGYVFSGM [NEIL3_Y71_V76M_YF] | 0.938 | 1.1 | 1.45 | 0.954 | 0.532 | 0.541 | 0.487 | 0.629 | 0.504 | 1.07 | 0.421 | 0.531 | 1.08 | 0.435 | 0.697 | 0.482
SLGKGYYDGGC [MC4R_Y35_S36Y] | 0.741 | 0.59 | 0.727 | 0.96 | 0.65 | 0.591 | 0.635 | 0.68 | 0.648 | 1.33 | 0.611 | 0.552 | 1.03 | 0.514 | 0.841 | 0.543

Now from value to sequence, other results behind:

SH2 binding enrichment (Grb2 SH2) | SH2 binding enrichment (SHP2-C SH2) | SH2 binding enrichment (c-Src SH2) | Sequence | phosphorylation enrichment (AncSZ) | phosphorylation enrichment (EPHB1) | phosphorylation enrichment (EPHB2) | phosphorylation enrichment (FGFR1) | phosphorylation enrichment (FGFR3) | phosphorylation enrichment (Fer (mouse)) | phosphorylation enrichment (Fes) | phosphorylation enrichment (Fyn) | phosphorylation enrichment (Hck) | phosphorylation enrichment (Jak2) | phosphorylation enrichment (MERTK) | phosphorylation enrichment (c-Abl (mouse)) | phosphorylation enrichment (c-Src)
0.772 | 1.68 | 1.09 | RRNTFYASIAK [ACADM_Y353_YF] | 0.605 | 0.453 | 0.455 | 0.442 | 0.583 | 0.367 | 0.622 | 0.482 | 0.463 | 0.511 | 0.474 | 0.509 | 0.638
1.04 | 0.498 | 0.641 | RSACTYLASHL [PLK3_Y615] | 0.703 | 0.534 | 0.641 | 0.509 | 0.792 | 0.519 | 0.909 | 0.468 | 0.4 | 0.575 | 0.433 | 0.564 | 0.417
0.947 | 0.749 | 0.595 | RSDEDYLCREE [POR_Y573_Y575C] | 1.54 | 0.747 | 0.737 | 0.623 | 1.27 | 0.951 | 2.34 | 0.716 | 0.769 | 1.34 | 0.785 | 1.01 | 0.765
0.822 | 0.727 | 0.683 | RSRQIYDAYIM [GRK3_Y109] | 0.914 | 3 | 6.14 | 0.511 | 0.8 | 14.6 | 0.807 | 15.2 | 10.4 | 1.15 | 8.17 | 6.11 | 11
0.961 | 0.623 | 0.606 | RSSGPYGGGGQ [HNRNPA1_Y341] | 0.811 | 0.466 | 0.485 | 0.589 | 0.441 | 0.518 | 0.686 | 0.715 | 0.616 | 0.485 | 0.625 | 0.643 | 0.56
1.15 | 3.87 | 0.993 | SEKISYVYMKR [SSX7_Y48_L43S] | 0.912 | 0.553 | 0.504 | 0.6 | 0.748 | 0.387 | 0.967 | 0.469 | 0.479 | 0.964 | 0.385 | 0.538 | 0.444
0.874 | 0.739 | 0.561 | SELVCYDARVH [MET_Y971_R970C] | 1.07 | 0.592 | 0.673 | 0.547 | 0.679 | 0.49 | 1.14 | 0.603 | 0.816 | 0.867 | 0.496 | 0.721 | 0.482
0.784 | 3.97 | 1.66 | SEQNNYSRVAN [CWC22_Y797_R794Q] | 0.705 | 1.14 | 0.878 | 0.43 | 0.437 | 0.497 | 0.534 | 0.458 | 0.458 | 0.535 | 0.4 | 0.447 | 0.35
1.02 | 0.764 | 0.755 | SFCFRYCCAAR [SUMF1_Y344_R345C_YF] | 1.25 | 0.659 | 0.611 | 0.504 | 0.723 | 0.517 | 1.23 | 0.487 | 0.436 | 1.02 | 0.445 | 0.7 | 0.397
1.19 | 0.752 | 1.01 | SGRSGYCLGTR [SCO1_Y60_P58S] | 0.586 | 0.309 | 0.535 | 0.518 | 0.432 | 0.399 | 0.834 | 0.341 | 0.348 | 0.617 | 0.55 | 0.514 | 0.424
0.9 | 0.724 | 0.553 | SHLLRYLSWTV [CLCNKB_Y93] | 1.24 | 0.553 | 0.528 | 0.684 | 0.7 | 0.478 | 1.23 | 0.468 | 0.544 | 1.06 | 0.37 | 0.781 | 0.368
1.77 | 1.62 | 1.27 | SIFKDYFRFNF [PLA2G2D_Y85_YF] | 1.18 | 0.523 | 0.537 | 3.99 | 2.58 | 0.428 | 1.19 | 0.495 | 0.481 | 2.8 | 0.579 | 0.821 | 0.643
0.804 | 0.764 | 0.446 | SKDQIYPMKLK [RANBP17_Y823] | 0.451 | 0.29 | 0.458 | 0.386 | 0.437 | 0.336 | 0.533 | 0.417 | 0.361 | 0.493 | 0.355 | 0.449 | 0.572
0.746 | 0.692 | 0.867 | SLDLSYYHTSS [EMD_Y181_P183H] | 1.05 | 0.765 | 0.58 | 1.53 | 1.19 | 0.453 | 0.951 | 0.543 | 0.554 | 1.71 | 0.578 | 0.603 | 0.524
0.921 | 0.819 | 1.27 | SLDLSYYPTSS [EMD_Y181] | 1.42 | 0.614 | 0.566 | 2.62 | 2.18 | 0.507 | 0.947 | 0.515 | 0.617 | 4.37 | 0.661 | 0.803 | 0.583
1.06 | 0.563 | 0.501 | SLGSPYGQPPR [PDLIM4_Y137] | 0.747 | 0.413 | 0.448 | 0.426 | 0.526 | 0.356 | 0.771 | 0.553 | 0.365 | 0.484 | 0.378 | 0.486 | 0.461
